Test results published in patent US10442868B2, “Treating hepatitis B virus infections by administering receptor associated protein (RAP)” (Rhode Island Hospital, A Lifespan-Partner, priority 2013, dated 2019).

What was measured:
HBV = HBV infection of differentiated HepaRG cells with RAP or GST-RAP, secreted HBsAg by ELISA; assay type: cell-based; conditions: overnight with HBV inoculum and increasing concentrations, HBsAg measured 10 days later
Protocol: Differentiated HepaRG cells (4×10^4), which are susceptible to HBV infection (Gripon et al., Proc Natl Acad Sci USA 99:15655-60, 2002), were incubated overnight with HBV inoculum in the presence or absence of increasing concentrations of RAP or GST-RAP, and washed extensively to remove unbound HBV virions and HBsAg. Medium was changed every 2-3 days. HBsAg level in culture supernatant was measured 10 days later (at this point there was no more residual HBsAg from the inoculum, and signals detected reflect newly synthesized and secreted proteins). The level of HBsAg secreted into the culture supernatant was determined by an ELISA assay using a commercially available kit (e.g., Novus Biologicals, NEO BioLab, Cusabio Biotech Co., Ltd.). Briefly, culture medium was added to wells containing capture antibody (anti-HBsAg), followed by incubation at 37° C. for 30 min. After washing with provided washing buffer, conjugate (anti-HBsAg conjugated with HRP) was added followed by incubation at 37° C. for 30 min.

[1] = tested on: differentiated HepaRG cells; assay: Killing of differentiated HepaRG cells by LRP-utilizing toxin, trypan blue staining; assay type: cell-based, human; conditions: 500 ng/ml, 37° C. overnight, low dose
Protocol: Hepatocytes are polarized. LRP is distributed at the basolateral side rather than apical side of hepatocytes (Marzolo et al., Traffic 4:273-88, 2003) consistent with HBV infection from the bloodstream. It was recently reported that HBV preferentially infects hepatocytes near the edge of hepatocyte islands (Schulze et al., Hepatology 55:373-83, 2012). […] Differentiated HepaRG cells were untreated (left panel) or incubated with pseudomonas exotoxin A (500 ng/ml) at 37° C. overnight (right panel), and stained with 0.04% trypan blue to reveal dead (blue) cells under microscopy. The dead cells were mainly located at the periphery of hepatocyte islands, which are also most susceptible to HBV infection.

Molecule	HBsAg secretion to culture supernatant (HBV infectivity) (HBV)	cell killing (trypan blue dead cells) [1]
GST-RAP: GST fusion form of RAP tested in HepaRG HBV infection (protein, left off: a dimerising Fc or GST, GST fusion form of RAP tested in HepaRG HBV infection) YSREKNQPKPSPKRESGEEFRMEKLNQLWEKAQRLHLPPVRLAELHADLKIQERDELAWKKLKLDGLDEDGEKEARLIRNLNVILAKYGLDGKKDARQVTSNSLSGTQEDGLDDPRLEKLWHKAKTSGKFSGEELDKLWREFLHHKEKVHEYNVLLETLSRTEEIHENVISPSDLSDIKGSVLHSRHTELKEKLRSINQGLDRLRRVSHQGYSTEAEFEEPRVIDLWDLAQSANLTDKELEAFREELKHFEAKIEKHNHYQKQLEIAHEKLRHAESVGDGERVSRSREKHALLEGRTKELGYTVKKHLQDLSGRISRARHNEL	dose-dependent reduction of HBsAg secretion	
RAP: Receptor associated protein, chaperone binding LRP and other LDLR family members; universal inhibitor of the LDLR protein family (SEQ ID NO:6) (protein, human receptor associated protein (RAP)) MAPRRVRSFLRGLPALLLLLLFLGPWPAASHGGKYSREKNQPKPSPKRESGEEFRMEKLNQLWEKAQRLHLPPVRLAELHADLKIQERDELAWKKLKLDGLDEDGEKEARLIRNLNVILAKYGLDGKKDARQVTSNSLSGTQEDGLDDPRLEKLWHKAKTSGKFSGEELDKLWREFLHHKEKVHEYNVLLETLSRTEEIHENVISPSDLSDIKGSVLHSRHTELKEKLRSINQGLDRLRRVSHQGYSTEAEFEEPRVIDLWDLAQSANLTDKELEAFREELKHFEAKIEKHNHYQKQLEIAHEKLRHAESVGDGERVSRSREKHALLEGRTKELGYTVKKHLQDLSGRISRARHNEL	dose-dependent reduction of HBsAg secretion	
Pseudomonas exotoxin (protein) AEEAFDLWNECAKACVLDLKDGVRSSRMSVDPAIADTNGQGVLHYSMVLEGGNDALKLAIDNALSITSDGLTIRLEGGVEPNKPVRYSYTRQARGSWSLNWLVPIGHEKPSNIKVFIHELNAGNQLSHMSPIYTIEMGDELLAKLARDATFFVRAHESNEMQPTLAISHAGVSVVMAQAQPRREKRWSEWASGKVLCLLDPLDGVYNYLAQQRCNLDDTWEGKIYRVLAGNPAKHDLDIKPTVISHRLHFPEGGSLAALTAHQACHLPLETFTRHRQPRGWEQLEQCGYPVQRLVALYLAARLSWNQVDQVIRNALASPGSGGDLGEAIREQPEQARLALTLAAAESERFVRQGTGNDEAGAASADVVSLTCPVAAGECAGPADSGDALLERNYPTGAEFLGDGGDISFSTRGTQNWTVERLLQAHRQLEERGYVFVGYHGTFLEAAQSIVFGGVRARSQDLDAIWRGFYIAGDPALAYGYAQDQEPDARGRIRNGALLRVYVPRSSLPGFYRTGLTLAAPEAAGEVERLIGHPLPLRLDAITGPEEEGGRLETILGWPLAERTVVIPSAIPTDPRNVGGDLDPSSIPDKEQAISALPDYASQPGKPPREDLK		selectively killed cells in the periphery of hepatocyte islands
